For experiment [1], the target named is T1, UFC1 (UniProt Q9Y3C8 1-167).
T1 sequence: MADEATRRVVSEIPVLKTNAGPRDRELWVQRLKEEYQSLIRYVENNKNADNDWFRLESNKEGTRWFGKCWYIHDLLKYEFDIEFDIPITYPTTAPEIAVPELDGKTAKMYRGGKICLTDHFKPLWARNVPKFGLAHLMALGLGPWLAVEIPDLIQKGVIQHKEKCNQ
Put plainly: ITC.

Experiment [2] has as its target T1, UFC1. The experiment is described as follows: NMR titration.
Experiment [3] has as its target T2, UFL1 27-200 (the UFL1 piece of the fusion DDRGK1-UFL1ΔN) (UniProt O94874 27-200).
T2 sequence: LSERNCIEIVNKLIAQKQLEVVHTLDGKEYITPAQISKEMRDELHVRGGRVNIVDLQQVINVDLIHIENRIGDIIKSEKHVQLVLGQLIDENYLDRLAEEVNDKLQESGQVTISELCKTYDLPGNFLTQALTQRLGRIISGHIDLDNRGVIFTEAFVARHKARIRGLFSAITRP
Put plainly: crystal structure.

B1: DDRGK1_(207-314)-UFL1_(1-200) fusion protein (other)
chain: MTEEQSQSFLTEFINYIKQSKVVLLEDLASQVGLRTQDTINRIQDLLAEGTITGVIDDRGKFIYITPEELAAVANFIRQRGRVSIAELAQASNSLIAWGRESPAQAPAMADAWEEIRRLAADFQRAQFAEATQRLSERNCIEIVNKLIAQKQLEVVHTLDGKEYITPAQISKEMRDELHVRGGRVNIVDLQQVINVDLIHIENRIGDIIKSEKHVQLVLGQLIDENYLDRLAEEVNDKLQESGQVTISELCKTYDLPGNFLTQALTQRLGRIISGHIDLDNRGVIFTEAFVARHKARIRGLFSAITRP
The term Kd denotes a measure of binding affinity in units of concentration. For B1, in the experiment with UFC1 [1], binding was put at a Kd of 2.4 µM. That is a single-digit micromolar value.

B2: UBA5 C-terminus (UBA5 347-404) (domain or fragment)
chain: SEVSEEELKNFSGPVPDLPEGITVAYTIPKKQEDSVTELTVEDSGESLEDLMAKMKNM
Regarding B2, the binding result with UFC1 [2] is given as “binds”.

B3: DDRGK1 207-305 (the DDRGK1 piece of the fusion DDRGK1-UFL1ΔN) (domain or fragment)
chain: MTEEQSQSFLTEFINYIKQSKVVLLEDLASQVGLRTQDTINRIQDLLAEGTITGVIDDRGKFIYITPEELAAVANFIRQRGRVSIAELAQASNSLIAWG
Turning to B3, the binding result in experiment [3] was “binds”.

For the origin of these results see doi:10.1101/2022.09.15.508077 (bioRxiv, 2022).
